Measured values from article PMC3891018 (Scientific Reports, 2014).

Molecular target: H-ficolin (human, UniProt O75636 24-299)
Assay: SPR

H-ficolin, sequence (O75636 24-299): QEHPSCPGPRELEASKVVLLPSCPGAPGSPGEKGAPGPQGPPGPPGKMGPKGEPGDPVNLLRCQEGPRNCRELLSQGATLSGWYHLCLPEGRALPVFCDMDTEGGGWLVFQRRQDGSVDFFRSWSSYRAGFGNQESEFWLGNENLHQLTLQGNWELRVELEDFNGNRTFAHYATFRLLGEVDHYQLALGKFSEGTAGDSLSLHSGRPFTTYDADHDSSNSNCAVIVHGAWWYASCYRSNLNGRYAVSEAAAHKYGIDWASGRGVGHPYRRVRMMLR

Binder	Kd [µM]
DTLMISRTPEVTCVV [nIgG peptide DTLMISRTPEVTCVV 278-292 (peptide 1)]	~1
LTCLVKGFYPSDI [nIgG peptide LTCLVKGFYPSDI 394-406 (peptide 6)]	~1
